Measurements reported in US20230159643A1 (H LUNDBECK A S, published 2023).

What was measured:
Assay in all cases: BLI Octet 384RED, antibody on Protein A sensor, Sortilin construct in solution
[1] = target: T1, Sortilin SORTECDBAP_tetra (tetraodon)
T1 construct: Fully tetraodon Sortilin ECD with BAP tag; also called tetraodon Sortilin
T1 chain: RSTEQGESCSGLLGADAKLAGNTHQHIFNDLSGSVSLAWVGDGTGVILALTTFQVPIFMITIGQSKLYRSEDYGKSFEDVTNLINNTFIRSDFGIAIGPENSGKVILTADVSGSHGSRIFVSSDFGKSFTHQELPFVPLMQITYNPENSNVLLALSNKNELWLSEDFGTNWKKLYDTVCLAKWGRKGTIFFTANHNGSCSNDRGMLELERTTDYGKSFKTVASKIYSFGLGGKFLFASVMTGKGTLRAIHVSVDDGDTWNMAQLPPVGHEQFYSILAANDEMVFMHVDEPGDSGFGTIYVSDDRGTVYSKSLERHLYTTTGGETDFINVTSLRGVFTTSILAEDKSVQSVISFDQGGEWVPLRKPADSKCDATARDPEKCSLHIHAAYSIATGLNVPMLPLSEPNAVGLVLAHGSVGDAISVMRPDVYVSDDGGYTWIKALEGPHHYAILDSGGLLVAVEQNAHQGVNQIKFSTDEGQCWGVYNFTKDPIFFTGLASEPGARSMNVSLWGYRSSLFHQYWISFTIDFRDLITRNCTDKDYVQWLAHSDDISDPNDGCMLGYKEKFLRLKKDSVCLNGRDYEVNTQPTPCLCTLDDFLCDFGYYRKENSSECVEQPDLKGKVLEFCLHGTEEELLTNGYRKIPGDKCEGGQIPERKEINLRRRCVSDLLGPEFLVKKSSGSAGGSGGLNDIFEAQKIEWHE
Experimental: (§1) Binding kinetics of anti-Sortilin HuMab antibodies to Sortilin were determined using Octet 384RED (Fortebio, Menlo Park, USA). HuMab solutions of 2 μg/ml were made by dilution in sample diluent (ForteBio, art. No. 18-5028). Prot A sensors (ForteBio, art. no. 18-0004) were prewetted with kinetics buffer (1:10 sample diluent in PBS) for at least 600 seconds. Subsequently sensors were immobilized with HuMab solution for 600 seconds. A baseline response was obtained by dipping in kinetics buffer for 120 seconds. Association of SORTECD constructs was performed during a 1000 seconds incubation. This was followed by dissociation in kinetics buffer for 100 seconds. After dissociation, sensors were regenerated (10 mM Glycine pH 1.0) and neutralized (kinetics buffer) 3 times for 5 seconds. […] A molecular weight of 76.8 kDA was used for SORTECDHis. Data was fitted with ForteBio Analysis 6.4 software, using a global full fit.

[2] = target: T2, Sortilin SORTECDBAP_hB06-10 (human/tetraodon chimera)
T2 construct: Shuffle construct
T2 chain: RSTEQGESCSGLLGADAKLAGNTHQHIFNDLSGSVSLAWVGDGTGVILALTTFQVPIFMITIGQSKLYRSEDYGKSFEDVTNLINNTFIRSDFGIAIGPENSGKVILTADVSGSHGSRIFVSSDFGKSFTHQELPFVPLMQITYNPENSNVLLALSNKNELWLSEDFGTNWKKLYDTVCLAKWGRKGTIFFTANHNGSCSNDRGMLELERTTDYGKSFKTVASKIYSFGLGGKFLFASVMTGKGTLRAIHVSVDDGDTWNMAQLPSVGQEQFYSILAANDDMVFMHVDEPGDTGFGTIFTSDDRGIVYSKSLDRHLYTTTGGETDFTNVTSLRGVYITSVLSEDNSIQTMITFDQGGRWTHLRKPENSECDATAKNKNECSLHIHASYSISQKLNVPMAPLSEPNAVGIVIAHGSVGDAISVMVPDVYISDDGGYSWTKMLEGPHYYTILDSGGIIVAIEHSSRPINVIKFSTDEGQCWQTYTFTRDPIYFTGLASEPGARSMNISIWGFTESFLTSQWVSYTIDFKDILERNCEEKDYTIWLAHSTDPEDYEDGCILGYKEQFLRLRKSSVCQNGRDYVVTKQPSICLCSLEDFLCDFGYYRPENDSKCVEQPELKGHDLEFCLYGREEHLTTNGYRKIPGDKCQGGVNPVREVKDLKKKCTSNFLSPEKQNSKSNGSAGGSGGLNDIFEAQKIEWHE
Experimental: as §1

[3] = target: T3, Sortilin SORTECDBAP_hB45678 (human/tetraodon chimera)
T3 construct: Shuffle construct
T3 chain: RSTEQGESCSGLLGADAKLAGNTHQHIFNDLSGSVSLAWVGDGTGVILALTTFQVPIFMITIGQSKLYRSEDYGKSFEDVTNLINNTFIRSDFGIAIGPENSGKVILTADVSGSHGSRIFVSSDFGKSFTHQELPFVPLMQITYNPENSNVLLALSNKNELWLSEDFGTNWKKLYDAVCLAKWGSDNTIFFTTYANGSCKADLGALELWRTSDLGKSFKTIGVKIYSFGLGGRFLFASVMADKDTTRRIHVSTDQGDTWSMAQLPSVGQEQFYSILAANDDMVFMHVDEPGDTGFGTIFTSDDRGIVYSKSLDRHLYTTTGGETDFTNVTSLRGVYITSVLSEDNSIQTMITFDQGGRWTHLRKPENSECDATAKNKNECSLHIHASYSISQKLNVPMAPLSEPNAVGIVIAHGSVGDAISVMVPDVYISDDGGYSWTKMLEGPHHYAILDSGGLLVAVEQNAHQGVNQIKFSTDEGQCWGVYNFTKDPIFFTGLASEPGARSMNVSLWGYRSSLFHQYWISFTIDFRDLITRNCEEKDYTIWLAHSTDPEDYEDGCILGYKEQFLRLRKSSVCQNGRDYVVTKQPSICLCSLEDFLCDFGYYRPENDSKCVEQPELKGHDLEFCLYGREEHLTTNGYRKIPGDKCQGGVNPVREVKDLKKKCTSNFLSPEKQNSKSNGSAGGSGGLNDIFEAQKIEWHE
Experimental: as §1

B1: 1320 (antibody, V domains shown)
VH: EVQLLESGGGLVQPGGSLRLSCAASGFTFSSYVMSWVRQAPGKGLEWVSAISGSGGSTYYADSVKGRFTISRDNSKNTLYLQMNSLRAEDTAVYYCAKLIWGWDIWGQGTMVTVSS
VL: EIVLTQSPATLSLSPGERATLSCRASQSVSSYLAWYQQRPGQAPRLLIYDASNRATGIPARFSGSGSGTDFTLSISSLEPEDFAVYYCQQRTNWSITFGQGTRLEIK
notes: also called IgG1-6003-1320; Antibody 1320
- binding result [1]: no binding (tested: 10 µg/ml construct)
- EC50 [2]: 0.0554 µg/mL
- binding result [3]: no binding (tested: 10 µg/ml construct)
